Measured values published in publication PMC7530659, “Oxepinamide F biosynthesis involves enzymatic D-aminoacyl epimerization, 3H-oxepin formation, and hydroxylation induced double bond migration” (Nature Communications, 2020).

How the values were obtained:
[1] = tested on: T1, CC[C@H](C)[C@@H]1NC(=O)[C@@H](Cc2ccccc2)n2c1nc1c(c2=O)C=CC=CO1; assay: purified protein; assay type: biochemical, Aspergillus ustus; conditions: FAD; NADPH
T1 construct: recombinant N-terminally His6-tagged OpaC from cDNA, 457 amino acids, lacking residues 248 to 252 of KIA75456

[2] = substrate: CC[C@H](C)C1=C2N=C3OC=CC=C[C@]3(O)C(=O)N2[C@H](Cc2ccccc2)C(=O)N1; assay: HPLC enzyme assay with purified OpaE, Michaelis-Menten kinetics (KM); D2O labeling by LC-MS; assay type: biochemical, Aspergillus ustus

Molecule	Km [1] [µM]	Km [2] [µM]
OpaC (Aspergillus ustus; DEL248-252)	430 ± 40	
OpaE (Aspergillus ustus) (protein, recombinant His6-tagged OpaE) MGPLRVFTDNKVKVMLLNPIGGAGFNDFVVETVLNHKDPSTHVTITSLANRIGGNQTLAYPSIRPLLYGEMIRVCLQARKENYDVLIINCFGDPMVDELQQIAGDDMVILGARQVAVQTASKISSKYAVLLPYDMKSSPDPLHQRVVADTRTAVAHPVVDMAFNDDLTPMDGESLGERLATQGKLAIKENGAEVLVLGCTAMVGCWQGLMRAVGVPVIDPTVAALRAAGKAGRLKRELVGGASTKRSGTFPTEKELKMIAESEPSYPFSGRIEI		1410 ± 50
